Earlier results on two substances are cited in patent publication US9453050B2, “Compositions for treating glioma” (GLIA SP Z.O.O., priority 2011, dated 2016).

The target of data set [1] is T1, low affinity receptor (GM-CSFRα alone) (Homo sapiens, UniProt P15509).
T1 sequence (P15509 23-400): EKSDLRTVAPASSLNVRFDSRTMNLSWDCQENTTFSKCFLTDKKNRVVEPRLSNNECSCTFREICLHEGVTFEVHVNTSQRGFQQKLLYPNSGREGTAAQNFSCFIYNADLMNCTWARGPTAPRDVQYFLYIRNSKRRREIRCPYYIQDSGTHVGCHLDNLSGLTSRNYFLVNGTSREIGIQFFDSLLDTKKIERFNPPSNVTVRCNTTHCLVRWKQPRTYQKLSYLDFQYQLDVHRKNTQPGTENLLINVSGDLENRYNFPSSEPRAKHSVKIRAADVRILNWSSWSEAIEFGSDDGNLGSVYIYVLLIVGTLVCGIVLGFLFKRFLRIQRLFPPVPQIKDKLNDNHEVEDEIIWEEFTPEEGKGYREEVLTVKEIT
The conditions noted are these: VonFeldt et al.; cited from earlier work.

Data set [2] concerns the target T2, high affinity receptor (GM-CSFRα.βc complex) (Homo sapiens, UniProt P15509+P32927).
T2 sequence (P15509 23-400): T1 sequence (P15509 23-400)
T2 sequence (P32927 17-897): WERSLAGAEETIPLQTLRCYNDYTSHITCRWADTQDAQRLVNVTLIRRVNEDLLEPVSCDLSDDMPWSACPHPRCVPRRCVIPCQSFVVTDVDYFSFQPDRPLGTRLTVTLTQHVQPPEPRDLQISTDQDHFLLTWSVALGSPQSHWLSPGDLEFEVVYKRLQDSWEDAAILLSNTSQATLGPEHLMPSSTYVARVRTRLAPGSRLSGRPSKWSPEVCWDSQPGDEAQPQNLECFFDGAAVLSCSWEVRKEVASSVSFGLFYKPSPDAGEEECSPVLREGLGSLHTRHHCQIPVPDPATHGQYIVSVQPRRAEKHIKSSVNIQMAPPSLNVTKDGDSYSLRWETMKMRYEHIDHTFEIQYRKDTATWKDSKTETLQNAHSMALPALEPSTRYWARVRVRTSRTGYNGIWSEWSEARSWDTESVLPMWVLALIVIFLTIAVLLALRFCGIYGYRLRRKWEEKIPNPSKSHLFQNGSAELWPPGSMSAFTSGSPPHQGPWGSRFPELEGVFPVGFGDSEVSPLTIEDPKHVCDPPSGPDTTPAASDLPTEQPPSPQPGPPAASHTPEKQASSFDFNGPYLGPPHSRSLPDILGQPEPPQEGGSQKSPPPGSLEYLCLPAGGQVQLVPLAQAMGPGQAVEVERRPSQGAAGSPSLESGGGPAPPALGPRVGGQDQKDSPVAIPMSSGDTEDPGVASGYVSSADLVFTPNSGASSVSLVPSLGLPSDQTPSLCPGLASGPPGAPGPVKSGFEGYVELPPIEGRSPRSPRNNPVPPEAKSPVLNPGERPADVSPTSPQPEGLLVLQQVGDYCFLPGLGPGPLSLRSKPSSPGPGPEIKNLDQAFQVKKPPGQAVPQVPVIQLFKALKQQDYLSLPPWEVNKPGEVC
The conditions noted are these: VonFeldt et al.; cited from earlier work.

Turning to “peptide consisting of amino acids 54-78 (B and C helices): linear peptide analog of GM-CSF, VonFeldt et al. (CLQTRLELYKQGLRGSLTKLKGPLT; UniProt P04141 71-95, looked up, fragment)”, the “low affinity receptor binding” value in data set [1] is on record as “inhibits”.

“amino acids 17-31 (the A helix) of GM-CSF: linear peptide analog of GM-CSF, VonFeldt et al. (NAIQEARRLLNLSRD; UniProt P04141 34-48, looked up, fragment)”: the “high affinity receptor binding” value in data set [2] was “inhibits”.
